Results from paper doi:10.1101/2024.04.02.587325, “Structural characterization of the Pseudomonas Aeruginosa MexR–mexR repressor-operator complex: a small-angle X-ray and neutron scattering perspective”.

Molecular target: MexR (Pseudomonas aeruginosa, UniProt P52003)
Experiment: ITC; one set of sites; N = 4.0 ± 0.1; dH 122.3 ± 5.2 kJ/mol; ITC: 20 mM NaPO4 pH 7.0, 150 mM NaCl, 5 mM beta-mercaptoethanol, 20 C; SEC of the complex: 20 mM HEPES, 150 mM NaCl, 2 mM TCEP
Conditions: protein: recombinant; tags: N-terminal His6-Trx removed by TEV; residual SM; chain copies: 4; blunt

Chain of MexR (P52003 5-139, tags or fused parts left off): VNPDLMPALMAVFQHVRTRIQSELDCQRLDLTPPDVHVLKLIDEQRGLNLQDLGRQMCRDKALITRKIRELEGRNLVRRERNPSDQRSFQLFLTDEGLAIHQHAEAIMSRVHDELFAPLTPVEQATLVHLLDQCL

B1: 60 bp mexR-mexA operator DNA (PI+PII) (dsDNA)
DNA 1: AAATGTGGTTGATCCAGTCAACTATTTTGCTTATTTTAGTTGACCTTATCAACCTTGTTT
DNA 2: AAACAAGGTTGATAAGGTCAACTAAAATAAGCAAAATAGTTGACTGGATCAACCACATTT
B1 showed a Kd of 206 ± 52 nM.
